Measurements taken from PMC7089426, “C8J_1298, a bifunctional thiol oxidoreductase of Campylobacter jejuni, affects Dsb (disulfide bond) network functioning” (PLoS ONE, 2020).

Biological target: the molecule itself
Assay: cross-linking; glutaraldehyde (0.0001-0.02% v/v), C8J_1298 at 1.8 mg/ml, room temperature, 20 min, 0.05 M bicine-NaOH pH 8.5, 0.1 mM DTT, 0.4 M NaCl; quenched with ethanolamine-HCl pH 8.0

B1: C8J_1298, periplasmic dimeric thiol oxidoreductase of Campylobacter jejuni 81116 (recombinant, lacking the signal sequence, C-terminal His-Tag) (enzyme)
chain: ASNSEISDFYSKSIKAQFPNATVSVSNRQKVGNTGFESVIVSVELNGQKQENILFTKDSLITPDLIDLKTGISYAQEYEMKKFQEARENFTKNAKAVAQKETMVIALGDKNKPAIYVFSDPECPYCREHLAQIDDELKNYQVNYILTPVHGKSAFEKSALIYKEAKKAKNDKEKIAILNKYYDANIKNYPKVSDAELKEVFSLYEKYRSLGLSATPTIIK
For B1, the “stoichiometry N” value was 2.
